Tested on: eighteen amino acid peptide containing the amino acid sequence PLGIA, covalently labeled with the same fluorophore near each end (HES structure)

Chain of matrix metalloprotease -9 (MMP-9) (chain, as listed by the source): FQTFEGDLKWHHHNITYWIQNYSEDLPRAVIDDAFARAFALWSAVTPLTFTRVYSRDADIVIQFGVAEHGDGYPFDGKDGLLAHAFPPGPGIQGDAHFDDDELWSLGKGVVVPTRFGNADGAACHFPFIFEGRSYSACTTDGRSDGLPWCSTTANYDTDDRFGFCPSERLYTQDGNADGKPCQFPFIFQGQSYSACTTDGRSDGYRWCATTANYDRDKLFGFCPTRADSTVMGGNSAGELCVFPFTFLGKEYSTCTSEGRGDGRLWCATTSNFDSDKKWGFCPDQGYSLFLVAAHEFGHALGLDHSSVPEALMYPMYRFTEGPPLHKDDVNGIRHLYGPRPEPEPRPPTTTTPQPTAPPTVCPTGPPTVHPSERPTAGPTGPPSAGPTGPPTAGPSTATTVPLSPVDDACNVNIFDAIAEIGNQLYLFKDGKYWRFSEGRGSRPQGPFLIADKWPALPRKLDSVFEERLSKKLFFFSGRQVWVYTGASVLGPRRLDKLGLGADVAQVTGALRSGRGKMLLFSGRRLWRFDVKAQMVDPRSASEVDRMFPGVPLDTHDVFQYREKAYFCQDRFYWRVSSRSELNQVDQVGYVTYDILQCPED

matrix metalloprotease -9 (MMP-9)
HPLC retention time (C18, reverse phase): After exposure to MMP-9, the major peaks were at ca. 30 and 31 minutes with the almost complete disappearance of the 38 minute peak | cleavage of the peptide: The PLGIA sequence was recognized by matrix metalloprotease -9 (MMP-9) and is cleaved between the LG and the IA
